B1: S. cerevisiae Abp1 (full length; SH3 domain 535-592 mutated) / Hua2 (parent complex)
chain 1: MALEPIDYTTHSREIDAEYLKIVRGSDPDTTWLIISPNAKKEYEPESTGSSFHDFLQLFDETKVQYGLARVSPPGSDVEKIIIIGWCPDSAPLKTRASFAANFAAVANNLFKGYHVQVTARDEDDLDENELLMKISNAAGARYSIQTSSKQQGKASTPPVKKSFTPSKSPAPVSKKEPVKTPSPAPAAKISSRVNDNNDDDDWNEPELKERDFDQAPLKPNQSSYKPIGKIDLQKVIAEEKAKEDPRLVQKPTAAGSKIDPSSDIANLKNESKLKRDSEFNSFLGTTKPPSMTESSLKNDDDKVIKGFRNEKSPAQLWAERKAKQNSGNAETKAEAPKPEVPEDEPEGEPDVKDLKSKFEGLAASEKEEEEMENKFAPPPKKSEPTIISPKPFSKPQEPVKAEEAEQPKTDYKKIGNPLPGMHIEADNEEEPEENDDDWDDDEDEAAQPPLPSRNVASGAPVQKEEPEQEEIAPSLPSRNSIPAPKQEEAPEQAPEEEIEEEAEEAAPQLPSRSSAAPPPPPRRATPEKKPKENPWATAEYDYDAAEDNELTFVENDKIINIEFVDDDWWLGELEKDGSKGLFPSNYVSLGN
chain 2: MQQTKFGKMYLDHDSVVEYSEDEIVEADRITLGYKKRLSMIENQMRHLLEDFSLDVQQIEPILADLQKYYDAFLQLLQKRNKSLQCKRSTHQPVPSPMNSQTSTNAKVNLSGKLMKFQLNSVQKFDEENILRILQNKIEFEHYFQIDKGKKQKVLLLAVYQCLNGPTRLHKVLNIEGIIHNNSIRTILGKQVSSSKWTVFLYDVKLVLLAHRQDVPNLETSKMIVRYGDLFPCALYFKDHTAY

Variants of: B1
Test: DHFR protein-fragment complementation in yeast (Abp1-DHFR F[1,2] x partner-DHFR F[3]), deep mutational scanning, second methotrexate selection vs reference; S. cerevisiae, DHFR-PCA selection in liquid with methotrexate at 30 C, two 72 h selections (the score uses the second); reference = the pre-selection culture

screen value	Variant
-0.947 DMS score: mean over two replicates of log2(f_test/f_ref + 0.5)/ln 2, minus the synonymous-codon median (not a log2 …	chain 1 MALEPIDYTTHSREIDAEYLKIVRGSDPDTTWLIISPNAKKEYEPESTGSSFHDFLQLFDETKVQYGLARVSPPGSDVEKIIIIGWCPDSAPLKTRASFAANFAAVANNLFKGYHVQVTARDEDDLDENELLMKISNAAGARYSIQTSSKQQGKASTPPVKKSFTPSKSPAPVSKKEPVKTPSPAPAAKISSRVNDNNDDDDWNEPELKERDFDQAPLKPNQSSYKPIGKIDLQKVIAEEKAKEDPRLVQKPTAAGSKIDPSSDIANLKNESKLKRDSEFNSFLGTTKPPSMTESSLKNDDDKVIKGFRNEKSPAQLWAERKAKQNSGNAETKAEAPKPEVPEDEPEGEPDVKDLKSKFEGLAASEKEEEEMENKFAPPPKKSEPTIISPKPFSKPQEPVKAEEAEQPKTDYKKIGNPLPGMHIEADNEEEPEENDDDWDDDEDEAAQPPLPSRNVASGAPVQKEEPEQEEIAPSLPSRNSIPAPKQEEAPEQAPEEEIEEEAEEAAPQLPSRSSAAPPPPPRRATPEKKPKENPWATAEYDYDAAEDNELTFVENDKIINIEFVDDDWWLGELEEDGSKGLFPSNYVSLGN [chain 1 K576E]
0.515 DMS score: mean over two replicates of log2(f_test/f_ref + 0.5)/ln 2, minus the synonymous-codon median (not a log2 …	chain 1 MALEPIDYTTHSREIDAEYLKIVRGSDPDTTWLIISPNAKKEYEPESTGSSFHDFLQLFDETKVQYGLARVSPPGSDVEKIIIIGWCPDSAPLKTRASFAANFAAVANNLFKGYHVQVTARDEDDLDENELLMKISNAAGARYSIQTSSKQQGKASTPPVKKSFTPSKSPAPVSKKEPVKTPSPAPAAKISSRVNDNNDDDDWNEPELKERDFDQAPLKPNQSSYKPIGKIDLQKVIAEEKAKEDPRLVQKPTAAGSKIDPSSDIANLKNESKLKRDSEFNSFLGTTKPPSMTESSLKNDDDKVIKGFRNEKSPAQLWAERKAKQNSGNAETKAEAPKPEVPEDEPEGEPDVKDLKSKFEGLAASEKEEEEMENKFAPPPKKSEPTIISPKPFSKPQEPVKAEEAEQPKTDYKKIGNPLPGMHIEADNEEEPEENDDDWDDDEDEAAQPPLPSRNVASGAPVQKEEPEQEEIAPSLPSRNSIPAPKQEEAPEQAPEEEIEEEAEEAAPQLPSRSSAAPPPPPRRATPEKKPKENPWATAEYDYDAAEDNELTFVENDKIINIEFVDDDWWLGELEKDGSKGLFPSNYVSLGR [chain 1 N592R]
0.405 DMS score: mean over two replicates of log2(f_test/f_ref + 0.5)/ln 2, minus the synonymous-codon median (not a log2 …	chain 1 MALEPIDYTTHSREIDAEYLKIVRGSDPDTTWLIISPNAKKEYEPESTGSSFHDFLQLFDETKVQYGLARVSPPGSDVEKIIIIGWCPDSAPLKTRASFAANFAAVANNLFKGYHVQVTARDEDDLDENELLMKISNAAGARYSIQTSSKQQGKASTPPVKKSFTPSKSPAPVSKKEPVKTPSPAPAAKISSRVNDNNDDDDWNEPELKERDFDQAPLKPNQSSYKPIGKIDLQKVIAEEKAKEDPRLVQKPTAAGSKIDPSSDIANLKNESKLKRDSEFNSFLGTTKPPSMTESSLKNDDDKVIKGFRNEKSPAQLWAERKAKQNSGNAETKAEAPKPEVPEDEPEGEPDVKDLKSKFEGLAASEKEEEEMENKFAPPPKKSEPTIISPKPFSKPQEPVKAEEAEQPKTDYKKIGNPLPGMHIEADNEEEPEENDDDWDDDEDEAAQPPLPSRNVASGAPVQKEEPEQEEIAPSLPSRNSIPAPKQEEAPEQAPEEEIEEEAEEAAPQLPSRSSAAPPPPPRRATPEKKPKENPWATAEYDYDAAEDNELTFVENDKIINIEFVDDDWWLGELEKDGSKGLFPSNYVSLGY [chain 1 N592Y]
0.518 DMS score: mean over two replicates of log2(f_test/f_ref + 0.5)/ln 2, minus the synonymous-codon median (not a log2 …	chain 1 MALEPIDYTTHSREIDAEYLKIVRGSDPDTTWLIISPNAKKEYEPESTGSSFHDFLQLFDETKVQYGLARVSPPGSDVEKIIIIGWCPDSAPLKTRASFAANFAAVANNLFKGYHVQVTARDEDDLDENELLMKISNAAGARYSIQTSSKQQGKASTPPVKKSFTPSKSPAPVSKKEPVKTPSPAPAAKISSRVNDNNDDDDWNEPELKERDFDQAPLKPNQSSYKPIGKIDLQKVIAEEKAKEDPRLVQKPTAAGSKIDPSSDIANLKNESKLKRDSEFNSFLGTTKPPSMTESSLKNDDDKVIKGFRNEKSPAQLWAERKAKQNSGNAETKAEAPKPEVPEDEPEGEPDVKDLKSKFEGLAASEKEEEEMENKFAPPPKKSEPTIISPKPFSKPQEPVKAEEAEQPKTDYKKIGNPLPGMHIEADNEEEPEENDDDWDDDEDEAAQPPLPSRNVASGAPVQKEEPEQEEIAPSLPSRNSIPAPKQEEAPEQAPEEEIEEEAEEAAPQLPSRSSAAPPPPPRRATPEKKPKENYWATAEYDYDAAEDNELTFVENDKIINIEFVDDDWWLGELEKDGSKGLFPSNYVSLGN [chain 1 P535Y]
-1.55 DMS score: mean over two replicates of log2(f_test/f_ref + 0.5)/ln 2, minus the synonymous-codon median (not a log2 …	chain 1 MALEPIDYTTHSREIDAEYLKIVRGSDPDTTWLIISPNAKKEYEPESTGSSFHDFLQLFDETKVQYGLARVSPPGSDVEKIIIIGWCPDSAPLKTRASFAANFAAVANNLFKGYHVQVTARDEDDLDENELLMKISNAAGARYSIQTSSKQQGKASTPPVKKSFTPSKSPAPVSKKEPVKTPSPAPAAKISSRVNDNNDDDDWNEPELKERDFDQAPLKPNQSSYKPIGKIDLQKVIAEEKAKEDPRLVQKPTAAGSKIDPSSDIANLKNESKLKRDSEFNSFLGTTKPPSMTESSLKNDDDKVIKGFRNEKSPAQLWAERKAKQNSGNAETKAEAPKPEVPEDEPEGEPDVKDLKSKFEGLAASEKEEEEMENKFAPPPKKSEPTIISPKPFSKPQEPVKAEEAEQPKTDYKKIGNPLPGMHIEADNEEEPEENDDDWDDDEDEAAQPPLPSRNVASGAPVQKEEPEQEEIAPSLPSRNSIPAPKQEEAPEQAPEEEIEEEAEEAAPQLPSRSSAAPPPPPRRATPEKKPKENPWATAEYDYDAAEDNELTFVENDKIINIEFVDDDWWLGELEKDGSKGLFPSHYVSLGN [chain 1 N586H]
